Test results reported in the DeepSol protein solubility set.

Assay: soluble on expression in E. coli; label from the status in PepcDB or PDB records

Row | Sequence | soluble on expression in E. coli
1 | GMKRVLLLFDVDGTLTPPRLCQTDEMRALIKRARGAGFCVGTVGGSDFAKQVEQLGRDVLTQFDYVFAENGLLAYRNGLEIHRQSLLNALGNDRIVKFVKKTLRLIADLDIPVQRGTFVEYRNGMINVSPIGRNCSQAERDEFEVYDNEHRVRASLIAELENSFPDFGLKYSIGGQISFDVFPVGWDKTYCLQFVEDDFEEIHFFGDKTQEGGNDYEIYTDKRTIGHKVTSYKDTIAEVEKIIAMK | soluble
2 | MSLIHEISENEKPREKLQNYGIEALSSSELVALIIETGTKNESVLTIANRIIMKFKNVGEMQYASIEEFQLVNGIGIAKASKIMAAIELGRRIGIVTEQEEVVVRCPEDAVKLVMPELAFLFQEHFHCLFLNTKNQVIYRQTIFVGGLNASIVHPREVFRLALRKSAASIMCFHNHPSGDPTPSSEDLLVTKRLAEAGNIVGITLLDHIIIGKNKYISLKEKGYFEGHHHHHH | not soluble
3 | MGSDKIHHHHHHMEIIAHRGFWNKESEKNTLTAIKRAIDNGYGFETDYRDNNGTIVISHNMPLGNEPTAEEIFRLYRDSGTESTLALNIKADGLQELLKDMLNTYQIKKYFLFDMSIPDTIDYILDNMNIATRHSEYEKEFPFYSQSSYVWMDCFKSEWISWGNLEEHLKSGKKVCIVSPELHRRPYKEVWNKYASFNHANLMLCTDFPMEADFFFNK | not soluble
4 | MALLRIFDAHCDALLKLWEDPAREYTDDPAIEANAVRLMEGGVRAQCFAIFVGPNIPFDQKFQVALQQAELFHEKILKKHPQFSFIERWDDLLTLDADQIGAILTLEGADPFGDDPTKLKTLYRLGVRSLGLTWNQANLCADGVGEPRGGGLTEWGKAVVSLNNEHHVLTDVSHLSERGFWDVIEYAQFPVATHSNAKAICKHRRNLTDAQLKALIEAGGFIGIVFHPHFLTGTDDASIDDVMKHIEHICSLGGQKHVGFGSNFDGIPCFVDGLEHAGRFQWFMDELLKRYDEELVRGFAWDNFLKATPISYVEGHHHHHH | soluble
5 | MAHHHHHHMKLEFAHEAIVSRRRLSKFGYSLQTEKWTLHVNKKKRERKRKDSKKREEGEVIITKNANEREIKTVEESKHHTTCRLWFANVAACMYFLALATEELNTILQTEVFSKQRLIYWQMYHMPCSHISCMSARIPPLPPFRLYVTLKPKMRGSIFANISVGRMVGYEAAWSSTYSKRKR | not soluble
6 | MAHHHHHHMCLGRSSGSALDTPLGAWWGGKRVAEIPPCPAESVTFVQLIARHFSPFVLRQHLPGAQDGLVTSSVQTREVAHKPVGCDVAVLVVVKRGAQVLRLPFARPHAKIPQKINKKLVRHALLTTRPLLLLQLKELSQCLNDRLWAAPTTQGALHTQKHAILARVVRVTPQHRRHRTTKAKQQQQQKQRNCSLVKSAHKT | not soluble
7 | MGSDKIHHHHHHMINSTFLTNRVFSTWYYFSLLLYKEKGCDLVKTPKIVVLGAGYGGMITTVRLQKALSVNEAEITLVNNNSYHYQATWLHESAAGTLQDEKICLDIQDVIDTNKVNFVQDTVVEIKAAEKRIILKDGELEYDYLVIGLGFESETFGITGLKEHAFSIANINATRQIREHMEASFAKYADEKRDELVTIVVGGAGFTGIEYVGELANRVPELCKQYNVPREKARIICVEAAPTALPGFDPALVEYAVKQLEKKGVEFRIGTAIKEATEEGIIVANGDDTELIKSETVVWAAGVRGNGIVEESGFEAMRGRVKVDEYMHAPGYEDVFMVGDAALIINEEINRPYPPTAQIAIQQGYNIAHNLTVLVRGKGEMKKFVFDNKGSVCSLGHDDAMGVVMGKKLTGWKASFMKKVIDNRYLFLLGGPLLVLKKGKLKFF | not soluble
8 | MFGLKVKNAEADTAKSNEKLQGAEATGSSTTSGSGQSTQRGGSSGDTKVKALQVAVKKKSGSQGNSGDQGTEQVELESNDLANAPIKRGSNPASPTQGSRLRHHPIQFGIWSIRHPHPLKAVACDRANSQGPPQMIRLDPHSVRCALCL | soluble
9 | MATQDDAHLAELKKKRTFRKFMYRGVDLDQLLDMSREQFTKLLPCRMRRRLDRGLKRKHLALIAKVQKAKKAAGVLEKPATVKTHLRDMIILPELVGGVIGIYNGKVFNQTEIKPEMIGFYLGEFAISYKPVKHGRPGIGATHSSRFIPLK | not soluble
10 | MSLSGRAGRHERTGEVIVQSYNPEHYSIEFAKKHDFIGFYNHEMQLRKMGSYPPFYYLTMINVSDENEMKAIRTIQEMAQFLRGKLGPDAVILGPVPSTITRIKNKYRYQCIIKYKIEPNLKKELKTLITHYQKDQQKGLTITIDVQPYVLMEGHHHHHH | soluble
11 | MSKPEFIARQGRKPTGWLGHIVARVMARETRPENDRALSFLDLADGDSLIDIGCGHGETLFQADRIVRLSGSVGVDFSEVMLKRARARNRDAVWDTRMAFHCADTAALPFPDKRFGKALSVHTIYFWPNPAAHLAEAFRVLRRGGRFLFCYRSTADRRAVEEFPDTVYRFPSVQEVEEKLKLVGFLGPETTTEDIKGRLTHWSIAEKPLEHHHHHH | soluble
12 | QRWSLPSLDPFGDRETAIETVGETVETSIDAVDTDSLAIAFSGGVDSALLAARLDAPLYVAGFPDSHDIEAARSAAELLGTEVRVVELTHDAIERAVPEIARATARTNAMDVQIALPLYLVAERVAGDGFDRLALGQGADELFGGYAKVAKAPEDPRVEADTVRGAQREVIASLPDQLERDVLALRAAGVEPVTPLLHDRVIGAALRLDGDLLVDGETRKVALRAAARESLPDEIADRDKKAAQYGSLAARELDRLARQAGYKRRMDDHVTQYVESLVE | not soluble
13 | MSDITISRPEVVNGHTDVICSTSIRHILAVRKSTLLQIDTLIRQLAEISVLTESIGGKTAPDWAMKQDFRCGCWLMEKPETAMKAITRNLDREIWRDLMQRSGMLSLMDTQARDTWYRSLEYDNFPEISEANILSTFEQLHQNKDEVFERGVINVFRGLNWNYKTNCPCKFGSKIIVNNLVRWDRWGFHLITGQQADRLADLERMLHLFSGKPIPDNRGNITLRLDDHIQSVQGKESYEDEMFSIRYFKKGSAHITFRKPELVDRLNDIIAKHYPDMLAV | soluble
14 | MAHHHHHHMNDETKVFNKCFKKISNCYTLNKKGEKENSTGNQFVLHNCIQTLLSDPIVVLYTDNNYICTGSLTGKVCLYKITIKENKETNTNISYVYNNNNNITDDEKKCINDLNNREELKKENYSKSTIDDVVISKKELNNHNNINNNNNNNNNNNNNSEIIKKYHILCMFRNNSIKSIYIDKNNIYICYESCIDVFCVRSYQFIQKINLDVTNNKQVIYYENYILFNNSKSLFIYDITSNFSSYFYKNFLKNIVIFDFNINYLLCYKNNFGKCHIRVLQIFADAQKCEHELIFCVDFSSKFISHGKFLDDEKIIVAKNGKRLIIFDFKKAIDMYRIRKLKKKILDIHKSVENMLFILVENQIFIFNLSTFVFYKTVQLPKGLFYFKWSYFIRYKNRKIIFSSDKGVYYIDYSIEENV | soluble
15 | EVQLQQSGPELVKPGSSVKISCKASRNTFTDYNLDWVKQSHGKTLEWIGNVYPNNGVTGYNQKFRGKATLTVDKSSSTAYMELHSLTSEDSAVYYCALYYYDVSYWGQGTLVTVSSAKTTPPSVYPLAPGSAAQTNSVTLGCLVKGYFPEPVTVTWNSGSLSSGVHTFPAVLQSDLYTLSSSVTVPSSTWPSQSVTCNVAHPASSTAVDKKIAPA | soluble
16 | GPGSMLRHAARCFSPRQCYVSPRVMEAEYAVRGLIPARADEIKADLATGHGTYSFESLVYCNIGNPQSVGQMPLTFYRQVMVLVDAPFLLEDAEIVARLPEDAVARARRYLSEIGTGTGAYTESFGFRFARAAVAAHINELDHGVSPAATVNDICLTDGASMGAKLFLQLLVGGASDAVMIPVPQYPLYSAQIALLGGVKVPYGLHESEGWVMKLSDLVAAYERCVTESGATPRLFVCINPGNPTGNVLERCVMEDVVRFCHERGMLLLADEVYQENVYDTRRRFLSFREVVLGMPEPYCSETMLVSLHSTSKGVIGECGRRGGYFCMTNLPAALRQQVVKLCSINLCANVNGQLMTALMCSPPREGEASYALHRREYDEIFTGMKERAELLARELGAVRGLSCQPVEGAMYAFPRIVLPERYAQRNEELNAKEGRQLALDARWALELLESSGIVVVPGSGFGQEPGTLHFRITILPPLEQIDRMVRAIREFQDRIYEQYA | soluble
